US20180010135

Test system: phiC31 integrase (Streptomyces phage phiC31?)
Assay: cell_activity
Details: in E. coli, 1% L-arabinose, 32 C, 60-120 min; intramolecular attB x attP recombination giving minicircle

phiC31 attB x attP sites flanking expression cassette (pBAD.phiC31.RHB)
activity (% recombination): > 97
